Source: US11814689B2 (priority 2021, dated 2023)

Experiments:
plasmid DNA [1] = assay type: biochemical
[2] = tested on: fluorescent dsDNA reporter; assay type: biochemical
SARS-CoV-2 N gene RNA = assay type: biochemical; conditions: IVT SARS-CoV-2 N gene fragment spiked in total RNA of negative swab, no RNA capture
ssRNA = assay type: biochemical; conditions: 425 nM ssRNA, 200 nM nuclease, cyclic oligoadenylates
ssDNA = assay type: biochemical; conditions: for ssDNA cleavage activity: 425 nM ssDNA, 200 nM nuclease, cyclic oligoadenylates
[3] = tested on: fluorescent ssRNA reporter; assay type: biochemical
SARS-CoV-2 RNA = assay type: biochemical
cA3 and cA4 = assay type: biochemical
[4] = tested on: library of 46 synthetic RNAs; assay type: biochemical
[5] = tested on: 2 Kb DNA reporter labelled biotin and digoxigenin; assay type: biochemical
plasmid DNA [6] = tested on: plasmid DNA

B1: CtNucC: NucC from Clostridium tepidum, NCBI WP_195923598.1, SEQ ID NO. 55 (protein, listed as Clostridium tepidum)
chain: MGQIDIKSLFYSLQTQMCAKLSTNRQHIQHPGIKGDSSELNWIEWLKTYLPKRYSVDKAFIIDCDGNMSDQIDVVIYDQQYSPFVFNQDNAYYIPAESVYAIFEVKQEINKENIIYAGDKTKSVRSLKRTSTAIPHAGGYYAPKPHNKILSGILTLSSVWNPPLGKSFEEAIYSLEDESKLDIGCILAEGSFLADYKNDVLMKSTEEESLIFFFLKLLIELQSLGTTPAIDINCYGRALDSI
For B1, the “dsDNase activity among three thermophilic NucC orthologs” value (plasmid DNA [1]) was “highest dsDNase activity”, the “size of plasmid DNA digestion fragments” value (plasmid DNA [1]) was 300-400 bp and the “cA3 sensitivity relative to AaCan2” value [2] was 100 fold. For the same molecule, the “cA3 sensitivity relative to TtCan1” value [2] was 10 fold, the “lowest concentration of cA3 detected” value [2] was 0.5 nM and the “target RNA concentration detected by TtCsm assay coupled with the nuclease” value (SARS-CoV-2 N gene RNA) was 10^7 copies/μL.

B2: AaCan2: Can2 from Archaeoglobi archaeon JdFR-42, JGI 2730024700, SEQ ID NO. 59 (protein)
chain: MSHIHVCLVSDQAIPNLTTALQFNPDTTVLLSTNEMKDKAKRLETVLKNKGLKVKTLKISAYDINDVITVSESLLNDCKGCKVSLNITGGTKIGTLGTFQVFYTASKPIFYVNTKDNEIIKLYPEKEQQKYPIEISISIKDYLAVYGFNVKSYVKDDSYIYKRKKVTDYLANLVIHRPNIIGEINYKLQNFEEKSYPLKINITKNKQVIKLYDILKDSGLVKIRNKSTIEIPDVETAKYLNGIWFEEYVYMMAKSLGADEVKLNVKGVWDTVGKHPPTNEFDILISKGNRLFYISCKTANPDRKIDDTDETIGKEYLYELDSISDSALGLFGKRMLASARAIKNDYVRKRAEILKIDIADGQNIATLKGKLQQWLSK
modifications: Archaeoglobi archaeon
B2 was tested, and the “dsDNase activity, activator and metal dependence” value (plasmid DNA [1]) was “Mn^2+- and cA3-dependent dsDNase”, the ssRNA cleavage activity (ssRNA) was “ssRNase when activated with cA4” and the ssDNA cleavage activity (ssDNA) was “Reproducible cleavage of ssDNA is also detectable”. The “cA4 concentration required for robust ssDNA cleavage” value (ssDNA; Mn^2+-specific) was 45 nM, the “cA4 concentration giving a similar fluorescent signal” value [3] was 0.5 nM and the “cA4 range in which rate of fluorescent signal is proportional to activator” value [3] was 1 to 10 nM. For the same molecule, the “fold less cA4 needed than TtCsm6 for similar fluorescent signal” value [3] was 20 fold, the “target RNA concentration detected by TtCsm assay coupled with the nuclease” value (SARS-CoV-2 N gene RNA) was 10^5 copies/μL and the “SARS-CoV-2 RNA concentration detected directly in swabs” value (SARS-CoV-2 RNA; RNA capture with AaCan2 readout, no RNA extraction or pre-amplification) was 5×10^4 copies/μL. The “Ct of unprocessed swab samples detected” value (SARS-CoV-2 RNA; no RNA purification, lysis buffer 0.05% Triton X-100 and 1 mM EGTA, AaCan2 readout) was over 21.2, the “loss of sensitivity compared to detection using purified RNA” value (SARS-CoV-2 RNA; unprocessed swab vs purified RNA) was about 5 fold and the “ring-nuclease activity on cyclic nucleotide activator” value (cA3 and cA4) was “binds and preserves the cyclic nucleotide”. The “ssRNA sequence cleavage preference” value [4] was “ACGACG”.

B3: TtCan1: Can1 from Thermus thermophilus, NCBI WP_011229147.1, SEQ ID NO. 61 (protein, listed as Thermus thermophilus)
chain: MQAPVYLCLLGNDPAPAYLGLKVVEREAGRVAKAVFYSFPAWNEEYGKKRQAFFRLLSEKGVLYEERPLEKGLEEAEAREVWVNLTGGAKYWAVRFLGHWRRPGARVFLVEGHRALEAPRALFLWPREEERSLEAEALTLEEYARLYLEPLGEAWERVSPPGAFPPGAQAARLPGREGGVFVVHRGLPYWYWVRPHLGGEAKDMSRKALSAFSGEAKRLGGQLCLPVVPYHKAHLRSRHPKERENVFARWRAWAREYGVFLVDPGRPLEEEVASLIKGKASKKALPLPQEGPLLLALVSEQAVPLYAAYLHAGPREVYLLTTPEMESRLRWAEAFFRGKGVRVHRSFLSGPWALREVRDLLAPVVEEALRRGHPVHANLNSGTTAMALGLYLALRDGARAHYLDGDRLLLLDGGEAEVPWEEGRPEDLLALRGYRFEEEYPDARPDPGLLALAEEILRRWDEVQTSWEASPLVRRFLKFWKKRFGQAFPPKRLSRLKGLPLEYAVYSHLNAHLAPKGGQARMGGHLVPLGGNEALAPQSTEVDGVFFHRGALWFVECKPTDEGLRERAPIMAELVRSVGGVEARGLMVARRWRGAPPPASPNLVYMALEGGEGVGVYRFPEELEKALSRNPAPRRG
B3 was tested, and the “plasmid DNA cleavage with cA4” value (plasmid DNA [1]) was “comparable to the background activity”, the “size of plasmid DNA degradation fragments” value (plasmid DNA [1]) was about 100 bp and the ssRNA cleavage activity (ssRNA) was “cA4-dependent single-stranded RNase”. For the same molecule, the ssDNA cleavage activity (ssDNA) was “does not cleave ssDNA”, the “RNA reporter cleavage compared with AaCan2” value [3] was “requires higher concentrations of cA4 and produces less fluorescent signal” and the “lateral flow result with cA3” value [5] was “positive result”. For the same molecule, the “lateral flow result with cA4” value [5] was “negative result” and the “DNA sequence cleavage preference” value (plasmid DNA [6]) was “non-sequence specific”.
